# Where two headings read alike, the source gives them in different places.
# B1: dimeric VHH (VHH-5HVZ-MBP) R2B-E6 (VHH)
# VHH: QVQLVESGGGLVQPGGSLRLSCAASGGVTRGNAMAWYRQAPGKQREIVAAIDNGGSHAYGDSVKGRFTISRDNAKNTVYLQMNSLKPEDTAVYYCAVFPDHDSEQASIDRVYWGQGTQVTVSS
# B2: PP888 MBP-S1b-E11-H6 (VHH)
# VHH: QVQLVESGGGLVQPGGSLRLSCAASGSYASIASMHWFRQAPGKEREFVAGVTSGGSTNYGDSVKGRFTISRDNAKNTVYLQMNSLKPEDTAVYYCNALAGANYESQWEEYNYWGQGTQVTVSS
# notes: Form: Monomer
# B3: PP1141 MBP-4B0F-PAPA-R5d-D4-H6 (VHH)
# VHH: QVQLVESGGGLVQPGGSLRLSCAASGSDFTINAMHWFRQAPGKQREFVATITSTSSTAYRDSVKGRFTISRDNAKNTVYLQMNSLKPEDTAVYYCAAFAVRDADTAGWTARDYWGQGTQVTVSS
# notes: Form: Heptamer
# B4: MBP-5HVZ-R5B-G1-H6 (VHH)
# VHH: QVQLVESGGGLVQPGGSLRLSCAASGSIGQIVLVHWFRQAPGKQRELVAGITSPSSTYYADSVKGRFTISRDNAKNTVYLQMNSLKPEDTAVYYCNTELEGKTQGFTGKTVWYDYWGQGTQVTVSS
# B5: PP1150 MBP-5HVZ-PAPA-R5b-G1-H6 (VHH)
# VHH: QVQLVESGGGLVQPGGSLRLSCAASGSIGQIVLVHWFRQAPGKQRELVAGITSPSSTYYADSVKGRFTISRDNAKNTVYLQMNSLKPEDTAVYYCNTELEGKTQGFTGKTVWYDYWGQGTQVTVSS
# notes: Form: Dimer
# B6: R5A-B7 (competition ELISA sample) (VHH)
# VHH: QVQLVESGGGLVQPGGSLRLSCAASGAFFSYGAIHWFRQAPGKQREEVAAITSGGSTGYADSVKGRFTISRDNAKNTVYLQMNSLKPEDTAVYYCNAGVVWLPSNAAYNLWGQGTQVTVSS
# B7: MBP-5HVZ-R5A-E5-H6 (VHH, not shown: large carriers; small tags and cut ends)
# VHH: QVQLVESGGGLVQPGGSLRLSCAASGYDFDILRMAWFRQAPGKEREMVAAITSAESVNYEDSVKGRFTISRDNAKNTVYLQMNSLKPEDTAVYYCATYDYTDDYGYASWGQGTQVTVSS
# B8: PP887 MBP-S1b-E7-H6 (VHH)
# VHH: QVQLVESGGGLVQPGGSLRLSCAASGGEFSDNGLHWFRQAPGKQREFVATASSDGSTQYRDSVKGRFTISRDNAKNTVYLQMNSLKPEDTAVYYCTALLMSSAGEYDVWGQGTQVTVSS
# notes: Form: Monomer
# B9: PP1140 MBP-4B0F-PAPA-R5d-B6-H6 (VHH)
# VHH: QVQLVESGGGLVQPGGSLRLSCAASGRILAANIVHWYRQAPGKEREGVAGITSGGGSYYADSVKGRFTISRDNAKNTVYLQMNSLKPEDTAVYYCNALGLGQSSLYRSADPYDSWGQGTQVTVSS
# notes: Form: Heptamer
# B10: MBP-5HVZ-R5C-B1-H6 (VHH, not shown: large carriers; small tags and cut ends)
# VHH: QVQLVESGGGLVQPGGSLRLSCAASGSGFSNNAMHWYRQAPGKQREGVAGITSGSVSFYADSVKGRFTISRDNAKNTVYLQMNSLKPEDTAVYYCAAVTGSSTGNAGQGYLTWGQGTQVTVSS
# B11: MBP-5HVZ-R5d-E1-H6 (VHH, not shown: large carriers; small tags and cut ends)
# VHH: QVQLVESGGGLVQPGGSLRLSCAASGSSFSINWMHWFRQAPGKQREGVASINSTGSDYYADSVKGRFTISRDNAKNTVYLQMNSLKPEDTAVYYCAAAITQPMPQGKGAPPGFYYWGQGTQVTVSS
# B12: MBP-R2B-D5-H6 (VHH)
# VHH: QVQLVESGGGLVQPGGSLRLSCAASGYADEINMVHWYRQAPGKGREFVAAIASGGSTFYADSVKGRFTISRDNAKNTVYLQMNSLKPEDTAVYYCAAIPRPSLSYAHDYAYWGQGTQVTVSS
# notes: monomer
# What was measured:
# [1] = target: T1, recombinant SARS-CoV-2 RBD with C-terminal AviTag (SARS-CoV-2, UniProt P0DTC2 319-541); assay: BLI, biotinylated RBD on streptavidin biosensors
# [2] = target: T1, recombinant SARS-CoV-2 RBD with …; assay: ELISA, competition with coated ACE2-Fc for RBD
# [3] = target: T1, recombinant SARS-CoV-2 RBD with …; assay: BLI, biotinylated RBD on streptavidin biosensors; OR: over-range [Cont. 7]
# [4] = target: T1, recombinant SARS-CoV-2 RBD with …; assay: ELISA, competition with coated ACE2-Fc for RBD [Cont. 5]
# [5] = target: T1, recombinant SARS-CoV-2 RBD with …; assay: ELISA, competition with coated ACE2-Fc for RBD [Cont. 3]
# [6] = target: SARS-COV-2 Wuhan Reference RBD (SARS-CoV-2, UniProt P0DTC2 319-541); assay: ELISA, RBD coated
# [7] = target: T1, recombinant SARS-CoV-2 RBD with …
# [8] = target: T1, recombinant SARS-CoV-2 RBD with …; remark: listed apart in the source
# [9] = target: T1, recombinant SARS-CoV-2 RBD with …; remark: listed apart in the source
# [10] = target: T1, recombinant SARS-CoV-2 RBD with …; assay: BLI, biotinylated RBD on streptavidin biosensors; OR: over-range [Cont. 6]
# [11] = target: T1, recombinant SARS-CoV-2 RBD with …; remark: listed apart in the source
# [12] = target: T1, recombinant SARS-CoV-2 RBD with …; remark: listed apart in the source
binder,measurement,setting,value
B1,Kd,[1],10.3 nM
same,IC50,[2],17.9 nM
B2,Kd,[3],~5290 nM
B3,IC50,[4],74.6 nM
B4,IC50,[5],26.6 nM
B5,EC50,[6],0.64 nM
same,IC50,[5],5.2 nM
B6,Kd,[7],13.1 nM
B7,Kd,[8],~31 nM
same,IC50,[9],17.7 nM
same,Kd,[9],31 nM
B8,Kd,[10],~6570 nM
B9,IC50,[4],106 nM
B10,IC50,[11],0.3 nM
same,Kd,[11],9.98 nM
same,Kd,[8],10 nM
B11,Kd,[12],7.98 nM
B12,Kd,[1],82 nM
